Laboratory results published in patent publication US8653039 (INDIANA UNIVERSITY RESEARCH AND TECHNOLOGY CORPORA, dated 2014).
Where no end group is shown, it is not given here.

Legend:
[1] = target: cancer specific isoform of proliferating cell nuclear antigen (caPCNA) (human) (UniProt P12004); test: capture ELISA, XPG-GST on the plate, cell extracts, detection with C20 anti-PCNA antibody
[2] = target: T1, cancer specific isoform of proliferating cell nuclear antigen (caPCNA) (human, UniProt P12004 1-261, acidic isoform; the filing says it differs from nmPCNA by post-translational modification, not by a genetic change; the residues are not stated); test: competition ELISA, caPCNAab on the plate, purified caPCNA, XPG peptide in increasing amounts
T1 construct: Native protein from MCF7 cell extract, nuclear extract or synthesome fraction, or 'isolated/purified caPCNA' in the ELISAs; also called csPCNA; ca(cs)PCNA
T1 sequence (P12004 whole entry, canonical isoform): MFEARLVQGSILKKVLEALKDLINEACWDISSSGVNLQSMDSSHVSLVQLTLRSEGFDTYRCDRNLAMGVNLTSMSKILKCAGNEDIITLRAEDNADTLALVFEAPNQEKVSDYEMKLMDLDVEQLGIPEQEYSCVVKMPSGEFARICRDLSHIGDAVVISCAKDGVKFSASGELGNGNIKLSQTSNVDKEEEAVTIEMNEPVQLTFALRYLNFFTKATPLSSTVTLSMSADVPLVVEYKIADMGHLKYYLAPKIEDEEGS
Protocol: The wells are washed and then incubated with a goat anti-PCNA antibody (C20) that recognizes the C-terminal 20 amino acids of PCNA. Bound C20 antibody is visualized with an alkaline phosphatase conjugated anti-goat IgG antibody, and bound antibody complex is visualized with […], and quantified by spectrophotometry. The competition experiments shown in this study involve the simultaneous incubation of the ca(cs)PCNA with increasing amounts of the antigenic peptide fragment of caPCNA (referred to as B1 or the PCNA aa126-133 peptide) in this assay.
The ELISA described herein was used to monitor the ability of two peptides to disrupt caPCNA binding to the bound caPCNA antibody. One peptide (H-Gly-Arg-Lys- […] OH) (SEQ ID NO: 29) corresponding to the p21cip/waf1 proteins site of interaction with PCNA was evaluated in this assay, and is shown to have no effect on the binding of caPCNA to the bound caPCNA antibody in this ELISA assay (FIG. 7). […] Therefore, the XPG peptide interacts with its recognized PCNA binding site in order to block binding of the PCNA protein to the caPCNA antibody. This happens if the epitope recognized by the antibody was masked by specifically binding this XPG peptide.

Chain of cancer specific isoform of proliferating cell nuclear antigen (caPCNA) (human) (P12004 whole entry, canonical isoform): as above

## LKQLDAQQTQLRIDSFFRLAQQEKEDAKR (peptide, UniProt P28715 981-1009, looked up, not shown: a dimerising Fc or GST, also: fused to GST, order of parts and linker not given here) [XPG-GST fusion protein]
[1]
  fold colored product (absorbance at 405 nm), MCF7 extract against MCF10A extract: 3 fold

## H-QTQLRIDSFFR-OH [XPG peptide corresponding to the XPG-PCNA interaction site of the XPG protein]
[2]
  binding result: binds
